What was measured:
[1] = molecular target: LTBP-proTGFβ1: transfected human proTGFβ1 presented by endogenous LTBP1/3 of LN229 cells (human); experiment: cell-based or functional assay
[2] = molecular target: T1, mouse LTBP1-proTGFβ1 complex (mouse, UniProt Q8CG19 339-1712; P04202 30-390); experiment: cell-based or functional assay
[3] = molecular target: T2, human LTBP1-proTGFβ1 complex (human, UniProt Q14766 347-1721; P01137 30-390); experiment: Octet BLI, IgG captured
T2 construct: Large latent complex: one presenting molecule disulfide-linked to a proTGFβ1 dimer; also called Hu LTBP1-proTGFβ1; huLTBP1 proTGFβ1
T2 sequence (Q14766 347-1721 limits assumed, chain 1 of 2): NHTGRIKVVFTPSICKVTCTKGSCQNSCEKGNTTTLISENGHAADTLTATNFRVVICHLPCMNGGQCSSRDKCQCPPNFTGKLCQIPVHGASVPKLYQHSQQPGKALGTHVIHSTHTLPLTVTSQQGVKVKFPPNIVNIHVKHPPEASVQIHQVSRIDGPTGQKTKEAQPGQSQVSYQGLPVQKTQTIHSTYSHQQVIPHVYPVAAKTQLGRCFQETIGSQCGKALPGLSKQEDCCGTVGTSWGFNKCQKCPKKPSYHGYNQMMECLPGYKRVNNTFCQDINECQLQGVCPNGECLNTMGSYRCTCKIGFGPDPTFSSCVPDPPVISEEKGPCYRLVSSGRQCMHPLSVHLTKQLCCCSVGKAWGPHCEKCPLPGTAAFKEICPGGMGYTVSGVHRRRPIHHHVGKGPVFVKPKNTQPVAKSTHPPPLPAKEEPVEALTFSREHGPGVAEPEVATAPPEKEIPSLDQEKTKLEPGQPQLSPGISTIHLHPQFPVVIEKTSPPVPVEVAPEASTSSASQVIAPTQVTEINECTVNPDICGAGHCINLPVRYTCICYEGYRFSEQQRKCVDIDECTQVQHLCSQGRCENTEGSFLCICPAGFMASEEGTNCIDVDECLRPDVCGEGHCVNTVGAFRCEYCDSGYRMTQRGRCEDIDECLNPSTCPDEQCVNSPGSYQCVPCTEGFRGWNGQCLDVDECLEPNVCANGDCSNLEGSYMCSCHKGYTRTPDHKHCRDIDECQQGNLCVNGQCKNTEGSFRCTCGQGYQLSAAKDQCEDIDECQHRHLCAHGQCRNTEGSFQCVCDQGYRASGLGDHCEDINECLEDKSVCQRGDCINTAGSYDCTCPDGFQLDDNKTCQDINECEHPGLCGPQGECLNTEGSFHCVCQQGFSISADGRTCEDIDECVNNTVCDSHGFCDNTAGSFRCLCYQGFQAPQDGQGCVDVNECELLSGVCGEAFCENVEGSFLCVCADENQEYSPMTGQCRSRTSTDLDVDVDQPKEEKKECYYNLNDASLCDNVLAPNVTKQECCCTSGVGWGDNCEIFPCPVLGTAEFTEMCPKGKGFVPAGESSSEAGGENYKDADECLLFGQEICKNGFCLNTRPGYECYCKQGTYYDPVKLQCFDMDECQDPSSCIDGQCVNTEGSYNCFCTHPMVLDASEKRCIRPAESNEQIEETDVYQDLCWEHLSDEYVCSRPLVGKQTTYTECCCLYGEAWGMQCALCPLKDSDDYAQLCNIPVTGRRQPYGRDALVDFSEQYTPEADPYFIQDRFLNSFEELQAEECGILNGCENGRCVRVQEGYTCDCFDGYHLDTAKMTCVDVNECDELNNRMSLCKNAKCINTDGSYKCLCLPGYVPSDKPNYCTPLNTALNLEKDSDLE
T2 sequence (P01137 30-390 limits assumed, chain 2 of 2): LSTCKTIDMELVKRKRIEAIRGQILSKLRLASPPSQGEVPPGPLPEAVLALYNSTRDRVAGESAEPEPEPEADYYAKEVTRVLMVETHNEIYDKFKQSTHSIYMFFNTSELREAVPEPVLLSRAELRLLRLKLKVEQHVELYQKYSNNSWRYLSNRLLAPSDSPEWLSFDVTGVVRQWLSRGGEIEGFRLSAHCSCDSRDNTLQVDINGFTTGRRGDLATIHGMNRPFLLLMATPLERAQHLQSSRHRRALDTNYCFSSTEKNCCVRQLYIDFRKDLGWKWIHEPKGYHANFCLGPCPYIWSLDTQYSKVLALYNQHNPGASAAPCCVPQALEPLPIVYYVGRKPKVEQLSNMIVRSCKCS
Experimental: (§1) Binding affinities of the optimized antibodies were measured by Octet against human LTBP1-proTGFβ1, human LTBP3-proTGFβ1, mouse LTBP1-proTGFβ1, mouse LTBP3-proTGFβ1, and GARP-proTGFβ1 complexes, essentially as described in Example 6. […] The antigens were allowed to associate for 3 minutes followed by a 5-minute dissociation. Kinetics buffer (ForteBio®) was used throughout the experiment, and KD was determined using a 1:1 fitting model for each antibody antigen pair.

[4] = molecular target: T3, human LTBP3-proTGFβ1 complex (human, UniProt Q9NS15 44-1303; P01137 30-390, limits assumed); experiment: Octet BLI, IgG captured
T3 construct: Exemplary entries; also called Hu LTBP3-proTGFβ1; huLTBP3 proTGFb1
T3 sequence (Q9NS15 44-1303 limits assumed, chain 1 of 2): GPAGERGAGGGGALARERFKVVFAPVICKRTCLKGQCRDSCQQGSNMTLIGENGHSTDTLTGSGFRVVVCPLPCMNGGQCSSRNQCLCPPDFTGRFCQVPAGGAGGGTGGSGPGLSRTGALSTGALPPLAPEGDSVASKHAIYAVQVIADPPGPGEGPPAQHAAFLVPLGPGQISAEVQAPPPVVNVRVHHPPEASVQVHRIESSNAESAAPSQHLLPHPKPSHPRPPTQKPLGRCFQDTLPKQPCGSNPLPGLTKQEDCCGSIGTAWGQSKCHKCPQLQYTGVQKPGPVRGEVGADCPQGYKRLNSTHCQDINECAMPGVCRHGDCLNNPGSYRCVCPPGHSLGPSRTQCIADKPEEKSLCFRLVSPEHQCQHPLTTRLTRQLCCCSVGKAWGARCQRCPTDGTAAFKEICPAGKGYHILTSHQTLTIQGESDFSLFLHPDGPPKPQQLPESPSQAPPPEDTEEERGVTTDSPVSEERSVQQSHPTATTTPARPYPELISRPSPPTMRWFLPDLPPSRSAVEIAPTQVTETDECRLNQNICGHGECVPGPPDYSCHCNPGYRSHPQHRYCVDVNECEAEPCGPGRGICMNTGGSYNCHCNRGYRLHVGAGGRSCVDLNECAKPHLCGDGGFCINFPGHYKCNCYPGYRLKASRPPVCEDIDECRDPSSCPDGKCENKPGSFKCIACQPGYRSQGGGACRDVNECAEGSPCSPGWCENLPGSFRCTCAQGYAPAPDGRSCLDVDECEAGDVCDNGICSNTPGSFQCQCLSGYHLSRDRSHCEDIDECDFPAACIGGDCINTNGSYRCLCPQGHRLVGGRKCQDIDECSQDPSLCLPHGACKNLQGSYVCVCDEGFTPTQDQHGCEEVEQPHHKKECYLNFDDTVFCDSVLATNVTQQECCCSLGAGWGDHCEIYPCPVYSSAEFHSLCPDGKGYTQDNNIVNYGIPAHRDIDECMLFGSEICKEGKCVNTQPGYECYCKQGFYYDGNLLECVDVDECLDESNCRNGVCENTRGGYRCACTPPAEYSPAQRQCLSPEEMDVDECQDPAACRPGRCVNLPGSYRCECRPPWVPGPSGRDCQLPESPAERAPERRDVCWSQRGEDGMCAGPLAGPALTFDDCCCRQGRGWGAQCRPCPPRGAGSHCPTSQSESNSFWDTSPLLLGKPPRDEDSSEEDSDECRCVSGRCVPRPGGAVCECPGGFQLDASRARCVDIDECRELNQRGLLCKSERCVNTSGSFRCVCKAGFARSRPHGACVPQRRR
T3 sequence (P01137 30-390 limits assumed, chain 2 of 2): as the sequence (P01137 30-390 limits assumed, chain 2 of 2) above
Experimental: as §1

[5] = molecular target: T1, mouse LTBP1-proTGFβ1 complex; experiment: Octet BLI, IgG captured
Experimental: as §1

[6] = molecular target: T4, mouse LTBP3-proTGFβ1 complex (mouse, UniProt Q61810 41-1245; P04202 30-390, limits assumed); experiment: Octet BLI, IgG captured
T4 construct: Exemplary entries; also called Mo LTBP3-proTGFβ1; Murine LTBP3 proTGFb1
Experimental: as §1

[7] = molecular target: T2, human LTBP1-proTGFβ1 complex; experiment: SPR Biacore 8K, Fab over captured antigen
Experimental: A Biacore 8K system was employed to determine the monovalent binding affinity and the kinetic parameters for antigen binding of test antibodies. Association and dissociation kinetics of Fab fragments SR-AB42-HuFab, SR-AB63-HuFab and SR-AB43-HuFab to antigen complexes were measured, and resulting ka, kd and KD are provided below. Briefly, the binding kinetics were evaluated by surface plasmon resonance using Biacore 8K (GE Healthcare). Biotinylated capture antigens were immobilized to the chip (10 nM, ˜200 RU loading). A Biotin CAPture sensor chip was used to capture the biotinylated antigens. […] 0 nM was used as a reference. […] 0 nM was used as a reference. Multi-cycle kinetics was employed where each analyte concentration was injected in a separate cycle and the sensor chip surface was regenerated after each cycle. A11 the assays were carried out in freshly prepared 1× HBS-EP+ buffer (10 mM HEPES, 150 mM NaCl, 3 mM EDTA, 0.05% Tween20, pH 7.4). Data were fit globally to a 1:1 binding model to obtain the kinetic parameters. The sensorgram for 0 nM analyte concentration was used as reference.

T1 sequence (Q8CG19 339-1712 limits assumed, chain 1 of 2): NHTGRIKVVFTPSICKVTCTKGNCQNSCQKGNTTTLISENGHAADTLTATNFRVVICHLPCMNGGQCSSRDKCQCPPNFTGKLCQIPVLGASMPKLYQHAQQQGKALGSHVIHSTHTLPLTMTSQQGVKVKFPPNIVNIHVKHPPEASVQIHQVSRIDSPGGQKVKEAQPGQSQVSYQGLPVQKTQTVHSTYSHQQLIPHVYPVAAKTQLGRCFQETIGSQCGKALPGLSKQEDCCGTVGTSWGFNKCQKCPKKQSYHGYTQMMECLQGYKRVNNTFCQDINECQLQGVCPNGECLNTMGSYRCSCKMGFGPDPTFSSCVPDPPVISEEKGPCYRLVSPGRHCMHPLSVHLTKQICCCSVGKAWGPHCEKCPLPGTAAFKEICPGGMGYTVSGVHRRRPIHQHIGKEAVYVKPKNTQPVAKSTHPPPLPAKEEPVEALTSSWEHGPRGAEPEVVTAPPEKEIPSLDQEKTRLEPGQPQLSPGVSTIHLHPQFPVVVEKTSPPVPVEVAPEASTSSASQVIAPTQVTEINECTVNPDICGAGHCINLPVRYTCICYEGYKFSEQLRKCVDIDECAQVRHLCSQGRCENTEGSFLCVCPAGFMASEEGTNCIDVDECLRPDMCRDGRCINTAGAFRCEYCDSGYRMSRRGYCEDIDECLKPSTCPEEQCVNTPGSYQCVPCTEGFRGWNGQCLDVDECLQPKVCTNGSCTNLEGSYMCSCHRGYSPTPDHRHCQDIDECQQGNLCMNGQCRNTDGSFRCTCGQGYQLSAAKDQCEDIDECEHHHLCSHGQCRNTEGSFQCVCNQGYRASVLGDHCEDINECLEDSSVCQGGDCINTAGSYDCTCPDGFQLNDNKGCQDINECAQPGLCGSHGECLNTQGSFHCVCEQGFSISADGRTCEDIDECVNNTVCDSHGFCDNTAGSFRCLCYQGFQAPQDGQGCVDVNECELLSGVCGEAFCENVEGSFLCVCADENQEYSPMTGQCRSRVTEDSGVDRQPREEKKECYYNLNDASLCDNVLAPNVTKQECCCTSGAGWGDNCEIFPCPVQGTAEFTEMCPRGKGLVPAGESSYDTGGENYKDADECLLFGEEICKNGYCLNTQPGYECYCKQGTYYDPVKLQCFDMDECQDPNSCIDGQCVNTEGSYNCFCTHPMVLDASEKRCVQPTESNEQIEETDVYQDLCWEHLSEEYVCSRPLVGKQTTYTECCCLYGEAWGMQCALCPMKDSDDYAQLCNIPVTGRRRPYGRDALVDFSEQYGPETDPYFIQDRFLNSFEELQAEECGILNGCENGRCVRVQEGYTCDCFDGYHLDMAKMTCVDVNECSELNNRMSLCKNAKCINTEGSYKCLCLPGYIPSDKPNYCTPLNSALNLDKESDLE
T1 sequence (P04202 30-390 limits assumed, chain 2 of 2): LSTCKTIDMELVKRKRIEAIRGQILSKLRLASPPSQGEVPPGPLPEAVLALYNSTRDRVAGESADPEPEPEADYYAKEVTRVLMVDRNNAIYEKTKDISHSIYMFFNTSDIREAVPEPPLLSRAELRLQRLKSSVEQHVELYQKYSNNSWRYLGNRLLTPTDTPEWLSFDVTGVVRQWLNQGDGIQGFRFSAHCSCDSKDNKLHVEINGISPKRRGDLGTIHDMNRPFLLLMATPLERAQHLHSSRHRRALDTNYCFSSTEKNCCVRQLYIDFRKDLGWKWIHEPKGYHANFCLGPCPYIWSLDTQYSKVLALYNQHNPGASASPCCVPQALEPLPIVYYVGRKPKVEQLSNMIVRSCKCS
LTBP-proTGFβ1: transfected human proTGFβ1 presented by endogenous LTBP1/3 of LN229 cells (human), sequence (P01137 30-390): as the sequence (P01137 30-390 limits assumed, chain 2 of 2) above

| Binder | Kd [7] [nM] | koff [7] [s⁻¹] | kon [7] [M⁻¹ s⁻¹] | also measured |
| --- | --- | --- | --- | --- |
| SR-AB42 (antibody, IgG1, V domains shown, Cycle 3, lineage SR-AB23) VH: QVQLVESGGGVVQPGRSLRLSCAASGFTFRSYVMHWVRQAPGKGLEWVAVISHEGSLKYYADSVKGRFTISRDNSKNTLYLQMNSLRAEDTAVYYCARPRIAARRGGFGYWGQGTLVTVSS VL: NFMLTQPHSVSESPGKTVTISCTRSSGNIDNNYVQWYQQRPGSSPTTVIYEDNQRPSGVPDRFSGSIDSSSNSASLTISGLKTEDEADYYCQSYDYDTQGVVFGGGTKLTVL | – | – | – | IC50, endogenous hLTBP assay (CAGA12 luciferase) [1]: 1.43 nM; IC50, mLTBP1 assay (CAGA12 luciferase) [2]: 0.271 nM; Kd [3]: 0.389 nM; koff [3]: 6e-05 s⁻¹; kon [3]: 154000 M⁻¹ s⁻¹; Kd [4]: 0.259 nM; koff [4]: 6e-05 s⁻¹; kon [4]: 232000 M⁻¹ s⁻¹; Kd [5]: 0.359 nM; Kd [6]: 1.05 nM |
| SR-AB50-HuFab (Fab, V domains shown, Human Fab; also called SR-AB50 Fab) VH: QVQLVESGGGVVQPGRSLRLSCAASGFTFRSYVMHWVRQAPGKGLEWVAVISHEGSGKYYADSVKGRFTISRDNSKNTLYLQMNSLRAEDTAVYYCARPRIAARRGGFGTWGQGTLVTVSS VL: NFMLTQPHSVSESPGKTVTISCTRSSGNIDYNYVQWYQQRPGSSPTTVIYEDNVRPSGVPDRFSGSIDSSSNSASLTISGLKTEDEADYYCQSYDSDNQRVVFGGGTKLTVL | 0.055 | 0.000182 | 3.31e+06 | – |
| SR-AB61-HuFab (Fab, V domains shown, Human Fab; also called SR-AB61 Fab) VH: QVQLVESGGGVVQPGRSLRLSCAASGFTFRSYVMHWVRQAPGKGLEWVAVISHEGSGKYYADSVKGRFTISRDNSKNTLYLQMNSLRAEDTAVYYCALPRIAARRGGFGTWGQGTLVTVSS VL: NFMLTQPHSVSESPGKTVTISCTRSSGNIDYNYVQWYQQRPGSSPTTVIYEDNVRPSGVPDRFSGSIDSSSNSASLTISGLKTEDEADYYCQGYDWDTQGVVFGGGTKLTVL | 0.132 | 0.000155 | 1.17e+06 | – |
| SR-AB54-HuFab (Fab, V domains shown, Human Fab; also called SR-AB54 Fab) VH: QVQLVESGGGVVQPGRSLRLSCAASGFTFRSYVMHWVRQAPGKGLEWVAVISHEGSGKYYADSVKGRFTISRDNSKNTLYLQMNSLRAEDTAVYYCALPRIAARRGGFGSWGQGTLVTVSS VL: NFMLTQPHSVSESPGKTVTISCTRSSGNIDYNYVQWYQQRPGSSPTTVIYEDNVRPSGVPDRFSGSIDSSSNSASLTISGLKTEDEADYYCQSYDSDNQRVVFGGGTKLTVL | 0.0491 | 8.83e-05 | 1.8e+06 | – |
| SR-AB53-HuFab (Fab, V domains shown, Human Fab; also called SR-AB53 Fab) VH: QVQLVESGGGVVQPGRSLRLSCAASGFTFRSYVMHWVRQAPGKGLEWVAVISHEGSGKYYADSVKGRFTISRDNSKNTLYLQMNSLRAEDTAVYYCARPRIAARRGGFGTWGQGTLVTVSS VL: NFMLTQPHSVSESPGKTVTISCTRSSGNIDYNYVQWYQQRPGSSPTTVIYEDNVRPSGVPDRFSGSIDSSSNSASLTISGLKTEDEADYYCQGYDWDTQGVVFGGGTKLTVL | 0.0707 | 0.000128 | 1.82e+06 | – |
| SR-AB59-HuFab (Fab, V domains shown, Human Fab; also called SR-AB59 Fab) VH: QVQLVESGGGVVQPGRSLRLSCAASGFTFRSYVMHWVRQAPGKGLEWVAVISHEGSGKYYADSVKGRFTISRDNSKNTLYLQMNSLRAEDTAVYYCALPRIAARRGGFGTWGQGTLVTVSS VL: NFMLTQPHSVSESPGKTVTISCTRSSGNIDYNYVQWYQQRPGSSPTTVIYEDNVRPSGVPDRFSGSIDSSSNSASLTISGLKTEDEADYYCQSYDYDNQAVVFGGGTKLTVL | 0.0509 | 0.00013 | 2.55e+06 | – |
| SR-AB58-HuFab (Fab, V domains shown, Human Fab; also called SR-AB58 Fab) VH: QVQLVESGGGVVQPGRSLRLSCAASGFTFRSYVMHWVRQAPGKGLEWVAVISHEGSGKYYADSVKGRFTISRDNSKNTLYLQMNSLRAEDTAVYYCALPRIAARRGGFGTWGQGTLVTVSS VL: NFMLTQPHSVSESPGKTVTISCTRSSGNIDYNYVQWYQQRPGSSPTTVIYEDNVRPSGVPDRFSGSIDSSSNSASLTISGLKTEDEADYYCQSYDSDNQRVVFGGGTKLTVL | 0.0521 | 0.000162 | 3.11e+06 | – |
| SR-AB60-HuFab (Fab, V domains shown, Human Fab; also called SR-AB60 Fab) VH: QVQLVESGGGVVQPGRSLRLSCAASGFTFRSYVMHWVRQAPGKGLEWVAVISHEGSGKYYADSVKGRFTISRDNSKNTLYLQMNSLRAEDTAVYYCALPRIAARRGGFGTWGQGTLVTVSS VL: NFMLTQPHSVSESPGKTVTISCTRSSGNIDYNYVQWYQQRPGSSPTTVIYEDNVRPSGVPDRFSGSIDSSSNSASLTISGLKTEDEADYYCQSYDYDTQGVVFGGGTKLTVL | 0.051 | 0.00012 | 2.35e+06 | – |
| SR-AB46-HuFab (Fab, V domains shown, Human Fab; also called SR-AB46 Fab) VH: QVQLVESGGGVVQPGRSLRLSCAASGFTFRSYVMHWVRQAPGKGLEWVAVISHEGSGKYYADSVKGRFTISRDNSKNTLYLQMNSLRAEDTAVYYCARPRIAARRGGFGSWGQGTLVTVSS VL: NFMLTQPHSVSESPGKTVTISCTRSSGNIDYNYVQWYQQRPGSSPTTVIYEDNVRPSGVPDRFSGSIDSSSNSASLTISGLKTEDEADYYCQSYDSDNQRVVFGGGTKLTVL | 0.0444 | 0.00011 | 2.47e+06 | – |

Second part, led by results:

| Kd [7] [nM] | koff [7] [s⁻¹] | kon [7] [M⁻¹ s⁻¹] | Binder | also measured |
| --- | --- | --- | --- | --- |
| 0.0593 | 0.000104 | 1.76e+06 | SR-AB48-HuFab (Fab, V domains shown, Human Fab; also called SR-AB48 Fab) VH: QVQLVESGGGVVQPGRSLRLSCAASGFTFRSYVMHWVRQAPGKGLEWVAVISHEGSGKYYADSVKGRFTISRDNSKNTLYLQMNSLRAEDTAVYYCARPRIAARRGGFGSWGQGTLVTVSS VL: NFMLTQPHSVSESPGKTVTISCTRSSGNIDYNYVQWYQQRPGSSPTTVIYEDNVRPSGVPDRFSGSIDSSSNSASLTISGLKTEDEADYYCQSYDYDTQGVVFGGGTKLTVL | – |
| 0.133 | 0.000181 | 1.35e+06 | SR-AB57-HuFab (Fab, V domains shown, Human Fab; also called SR-AB57 Fab) VH: QVQLVESGGGVVQPGRSLRLSCAASGFTFRSYVMHWVRQAPGKGLEWVAVISHEGSGKYYADSVKGRFTISRDNSKNTLYLQMNSLRAEDTAVYYCALPRIAARRGGFGSWGQGTLVTVSS VL: NFMLTQPHSVSESPGKTVTISCTRSSGNIDYNYVQWYQQRPGSSPTTVIYEDNVRPSGVPDRFSGSIDSSSNSASLTISGLKTEDEADYYCQGYDWDTQGVVFGGGTKLTVL | – |
| 0.0396 | 9.91e-05 | 2.5e+06 | SR-AB52-HuFab (Fab, V domains shown, Human Fab; also called SR-AB52 Fab) VH: QVQLVESGGGVVQPGRSLRLSCAASGFTFRSYVMHWVRQAPGKGLEWVAVISHEGSGKYYADSVKGRFTISRDNSKNTLYLQMNSLRAEDTAVYYCARPRIAARRGGFGTWGQGTLVTVSS VL: NFMLTQPHSVSESPGKTVTISCTRSSGNIDYNYVQWYQQRPGSSPTTVIYEDNVRPSGVPDRFSGSIDSSSNSASLTISGLKTEDEADYYCQSYDYDTQGVVFGGGTKLTVL | – |
| 0.131 | 0.000113 | 862000 | SR-AB55-HuFab (Fab, V domains shown, Human Fab; also called SR-AB55 Fab) VH: QVQLVESGGGVVQPGRSLRLSCAASGFTFRSYVMHWVRQAPGKGLEWVAVISHEGSGKYYADSVKGRFTISRDNSKNTLYLQMNSLRAEDTAVYYCALPRIAARRGGFGSWGQGTLVTVSS VL: NFMLTQPHSVSESPGKTVTISCTRSSGNIDYNYVQWYQQRPGSSPTTVIYEDNVRPSGVPDRFSGSIDSSSNSASLTISGLKTEDEADYYCQSYDYDNQAVVFGGGTKLTVL | – |
| 0.0489 | 0.000126 | 2.58e+06 | SR-AB56-HuFab (Fab, V domains shown, Human Fab; also called SR-Ab56 Fab) VH: QVQLVESGGGVVQPGRSLRLSCAASGFTFRSYVMHWVRQAPGKGLEWVAVISHEGSGKYYADSVKGRFTISRDNSKNTLYLQMNSLRAEDTAVYYCALPRIAARRGGFGSWGQGTLVTVSS VL: NFMLTQPHSVSESPGKTVTISCTRSSGNIDYNYVQWYQQRPGSSPTTVIYEDNVRPSGVPDRFSGSIDSSSNSASLTISGLKTEDEADYYCQSYDYDTQGVVFGGGTKLTVL | – |
| 0.0589 | 0.00015 | 2.55e+06 | SR-AB51-HuFab (Fab, V domains shown, Human Fab; also called SR-AB51 Fab) VH: QVQLVESGGGVVQPGRSLRLSCAASGFTFRSYVMHWVRQAPGKGLEWVAVISHEGSGKYYADSVKGRFTISRDNSKNTLYLQMNSLRAEDTAVYYCARPRIAARRGGFGTWGQGTLVTVSS VL: NFMLTQPHSVSESPGKTVTISCTRSSGNIDYNYVQWYQQRPGSSPTTVIYEDNVRPSGVPDRFSGSIDSSSNSASLTISGLKTEDEADYYCQSYDYDNQAVVFGGGTKLTVL | – |

— US20220064276A1 (SCHOLAR ROCK, published 2022)
